Results as given in article doi:10.1101/831339.

What was measured:
Assay in all cases: MST
[1] = target: DLA2 ΔCat 315 (Chlamydomonas reinhardtii, UniProt A0A2K3DW88 32-314)
[2] = target: DLA2 ΔCat (Chlamydomonas reinhardtii, UniProt A0A2K3DW88 32-269)
[3] = target: DLA2 ΔCat 450 (Chlamydomonas reinhardtii, UniProt A0A2K3DW88 32-449)
[4] = target: T1, PratA (Synechocystis sp. PCC 6803, UniProt P73091 39-383)
T1 sequence: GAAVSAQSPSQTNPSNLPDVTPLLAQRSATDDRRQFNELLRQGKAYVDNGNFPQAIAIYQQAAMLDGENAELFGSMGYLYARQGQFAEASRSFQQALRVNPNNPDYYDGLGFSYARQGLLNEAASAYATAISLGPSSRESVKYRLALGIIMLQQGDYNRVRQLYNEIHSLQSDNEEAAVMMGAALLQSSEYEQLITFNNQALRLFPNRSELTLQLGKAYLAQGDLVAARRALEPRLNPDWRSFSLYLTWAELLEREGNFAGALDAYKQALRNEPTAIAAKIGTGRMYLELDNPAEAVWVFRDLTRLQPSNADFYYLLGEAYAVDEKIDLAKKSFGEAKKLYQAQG

[5] = target: DLA2 ΔLip (Chlamydomonas reinhardtii, UniProt A0A2K3DW88 116-494)
[6] = target: DLA2 ΔCat 394 (Chlamydomonas reinhardtii, UniProt A0A2K3DW88 32-393)
[7] = target: DLA2 WT (MST) (Chlamydomonas reinhardtii, UniProt A0A2K3DW88 32-494)
[8] = target: DLA2 ΔCat 462 (Chlamydomonas reinhardtii, UniProt A0A2K3DW88 32-461)
[9] = target: DLA2 ΔE3B (Chlamydomonas reinhardtii, UniProt A0A2K3DW88 32-184+=VD+224-494, internal_change)

What does the source list for UUUACGGAGAAAUUAAAACUUUAAAAAAAUUAACAUAUGACCAUGGAUC (ssRNA) [psbA 5'-UTR probe native]?
Kd [1]: 0.607 ± 0.082 µM; Kd [2]: 0.911 ± 0.06 µM; Kd [3]: 0.466 ± 0.065 µM; binding result [4]: no binding; Kd [5]: 0.107 ± 0.02 µM; Kd [6]: 0.558 ± 0.077 µM; Kd [7]: 0.106 ± 0.024 µM; Kd [8]: 0.427 ± 0.055 µM; Kd [9]: 0.241 ± 0.021 µM

Which Kd [7] does the source give for UUUACGGAGAAAUUAAAACUUUCCCCCCCCCCCCAUAUGACCAUGGAUC (ssRNA) [psbA 5'-UTR C-stretch probe] here?
The Kd was 0.248 ± 0.054 µM.

What about the Kd [8] of the same binder?
Its Kd is 0.625 ± 0.075 µM.

And the Kd [9]?
Its Kd is 0.244 ± 0.043 µM.
